Results published in PMC5623714, “Cofactor Tail Length Modulates Catalysis of Bacterial F420-Dependent Oxidoreductases” (Frontiers in Microbiology, 2017).

Tests used:
[1] = target: T1, MSMEG_3380 (promiscuous F420H2-dependent reductase, FDOR-B) (Mycolicibacterium smegmatis, UniProt A0QXP8); assay: intrinsic tryptophan fluorescence quenching; assay type: binding; settings: read-out: F420 Kd
T1 construct: recombinant in E. coli BL21(DE3), Ni-NTA purified; dimer
Source text: intrinsic tryptophan fluorescence quenching on MSMEG_3380 (promiscuous F420H2-dependent reductase, FDOR-B)

[2] = target: T2, MSMEG_2027 (F420H2-dependent quinone reductase, FDOR-A) (Mycolicibacterium smegmatis, UniProt A0QU01); assay: intrinsic tryptophan fluorescence quenching; assay type: binding; settings: read-out: F420 Kd
T2 construct: recombinant in E. coli BL21(DE3), Ni-NTA purified; monomer
T2 sequence (A0QU01 1-140): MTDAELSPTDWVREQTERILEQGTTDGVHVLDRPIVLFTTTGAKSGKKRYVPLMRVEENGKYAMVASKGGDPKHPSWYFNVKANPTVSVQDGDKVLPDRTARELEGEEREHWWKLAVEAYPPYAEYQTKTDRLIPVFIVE
Source text: intrinsic tryptophan fluorescence quenching on MSMEG_2027 (F420H2-dependent quinone reductase, FDOR-A)

[3] = target: T3, Fgd (F420-dependent glucose 6-phosphate dehydrogenase MSMEG_0777) (Mycolicibacterium smegmatis, UniProt A0QQJ4); assay: intrinsic tryptophan fluorescence quenching; assay type: binding
T3 construct: recombinant in E. coli BL21(DE3), Ni-NTA purified; LLHT family
T3 sequence (A0QQJ4 2-336): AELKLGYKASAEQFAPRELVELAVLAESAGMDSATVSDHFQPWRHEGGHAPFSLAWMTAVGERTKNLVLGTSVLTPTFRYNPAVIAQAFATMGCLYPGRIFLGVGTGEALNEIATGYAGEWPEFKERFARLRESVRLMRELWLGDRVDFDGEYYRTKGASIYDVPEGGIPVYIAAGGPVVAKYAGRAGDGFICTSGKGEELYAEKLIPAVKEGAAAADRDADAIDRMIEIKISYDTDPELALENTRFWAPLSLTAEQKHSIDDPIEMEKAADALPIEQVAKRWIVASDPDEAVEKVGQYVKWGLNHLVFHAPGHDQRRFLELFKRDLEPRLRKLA
Source text: intrinsic tryptophan fluorescence quenching on Fgd (F420-dependent glucose 6-phosphate dehydrogenase MSMEG_0777)

purified protein [4] = substrate: CC1=CC(=O)c2ccccc2C1=O; assay: purified protein; assay type: biochemical, Mycolicibacterium smegmatis; settings: 50 μM long-chain F420H2 (mycobacterial), 200 mM TrisHCl, 0.1% Triton X-100, pH 8.0
purified protein [5] = substrate: O=C1C=CCCC1; assay: purified protein; assay type: biochemical, Mycolicibacterium smegmatis; settings: 50 μM long-chain F420H2 (mycobacterial), 200 mM TrisHCl, 0.1% Triton X-100, pH 8.0

C[C@H](OP(=O)(O)OC[C@@H](O)[C@@H](O)[C@@H](O)Cn1c2nc(=O)[nH]c(=O)c-2cc2ccc(O)cc21)C(=O)N[C@@H](CCC(=O)N[C@@H](CCC(=O)O)C(=O)O)C(=O)O [F420-2, short-chain F420]
Kd [1]: 570 ± 50 nM | Kd [2]: 1430 ± 120 nM | Kd [3]: 4180 ± 290 nM

B1: MSMEG_2027 (F420H2-dependent quinone reductase, FDOR-A) (Mycolicibacterium smegmatis MC2 155) (protein)
chain: MTDAELSPTDWVREQTERILEQGTTDGVHVLDRPIVLFTTTGAKSGKKRYVPLMRVEENGKYAMVASKGGDPKHPSWYFNVKANPTVSVQDGDKVLPDRTARELEGEEREHWWKLAVEAYPPYAEYQTKTDRLIPVFIVE
notes: recombinant in E. coli BL21(DE3), Ni-NTA purified; monomer
Km (purified protein [4]): 25.6 ± 9.2 µM | kcat (purified protein [4]): 0.084 ± 0.007 s⁻¹ | kcat/Km (purified protein [4]): 3280 M⁻¹ s⁻¹

B2: MSMEG_3380 (promiscuous F420H2-dependent reductase, FDOR-B) (Mycolicibacterium smegmatis MC2 155) (protein)
chain: MVAVPEGYESLLERPLYGHLATVRPDGTPQVNAMWFAWDGEVLRFTHTTKRQKYRNIKANPAVAMSVIDPDNPYRYLEVRGLVEDIVPDPTGAFYLKLNDRYDGPLTEPPADKADRVIIVVRPTAFSKQ
notes: recombinant in E. coli BL21(DE3), Ni-NTA purified; dimer
Km (purified protein [5]): 259 ± 41 µM | kcat (purified protein [5]): 0.025 ± 0.001 s⁻¹ | kcat/Km (purified protein [5]): 96 M⁻¹ s⁻¹
